{"source": "patent US11981935B2", "about": "“7β-hydroxysteroid dehydrogenase mutants and process for the preparation of ursodeoxycholic acid” (PharmaZell GmbH, priority 2010, dated 2024)", "molecules": {"B1": {"name": "Mycobacterium vaccae formate dehydrogenase (FDH) mutant D221G (= D222G of SEQ ID NO:36; SEQ ID NO: 15, 19, 35) (Mycolicibacterium vaccae; D222G) (protein)", "chain": "MAKVLCVLYDDPVDGYPKTYARDDLPKIDHYPGGQILPTPKAIDFTPGQLLGSVSGELGLREYLESNGHTLVVTSDKDGPDSVFERELVDADVVISQPFWPAYLTPERIAKAKNLKLALTAGIGSDHVDLQSAIDRNVTVAEVTYCNSISVAEHVVMMILSLVRNYLPSHEWARKGGWNIADCVSHAYDLEAMHVGTVAAGRIGLAVLRRLAPFDVHLHYTGRHRLPESVEKELNLTWHATREDMYPVCDVVTLNCPLHPETEHMINDETLKLFKRGAYIVNTARGKLCDRDAVARALESGRLAGYAGDVWFPQPAPKDHPWRTMPYNGMTPHISGTTLTAQARYAAGTREILECFFEGRPIRDEYLIVQGGALAGTGAHSYSKGNATGGSEEAAKFKKAAENSSSVDKLAAALEHHHHHH", "notes": "single-base deletion at the 3' end gives C-terminal read-through His-tag (last Val to Ala)"}, "B2": {"name": "7β-HSDH WT: 7β-hydroxysteroid dehydrogenase from Collinsella aerofaciens ATCC 25986 (DSM 3979), SEQ ID NO:2, NADPH-dependent (protein, listed as Collinsella aerofaciens)", "chain": "MNLREKYGEWGLILGATEGVGKAFCEKIAAGGMNVVMVGRREEKLNVLAGEIRETYGVETKVVRADFSQPGAAETVFAATEGLDMGFMSYVACLHSFGKIQDTPWEKHEAMINVNVVTFLKCFHHYMRIFAAQDRGAVINVSSMTGISSSPWNGQYGAGKAFILKMTEAVACECEGTGVDVEVITLGTTLTPSLLSNLPGGPQGEAVMKIALTPEECVDEAFEKLGKELSVIAGQRNKDSVHDWKANHTEDEYIRYMGSFYRD"}}, "key": {"[1]": {"biological_target": "7β-HSDH from Collinsella aerofaciens DSM 3979 (Collinsella aerofaciens, UniProt A4ECA9)", "assay_type": "biochemical"}, "[2]": {"biological_target": "T1, 7β-HSDH from Collinsella aerofaciens DSM 3979 (ATCC 25986), wild type, SEQ ID NO:2 (Collinsella aerofaciens, UniProt A4ECA9)", "T1 construct": "The gene coding for 7β-HSDH was once again amplified from the genomic DNA by PCR; made in house; host or cells: E. coli BL21(DE3), pET-28a(+)", "T1 sequence (A4ECA9 1-263)": "B2 chain", "assay": "Enzyme assay and kinetic analysis of 7β-HSDH (Lineweaver-Burk)", "assay_type": "biochemical", "settings": "pH 8, 25° C."}, "7β-HSDH": {"biological_target": "7β-HSDH (Collinsella aerofaciens, UniProt A4ECA9)", "assay": "Photometric identification of 7β-HSDH activity (production example 1)", "assay_type": "biochemical, Collinsella aerofaciens ATCC 25986", "settings": "0.1 mM test substance, potassium phosphate buffer 50 mM pH 8, in the presence of NADP+ or NADPH", "experimental": "For identification of 7β-HSDH activity, the activity was investigated by a photometric method. In a 1 ml cuvette, enzyme and 0.1 mM of test substance (UDCA) were mixed in potassium phosphate buffer (50 mM, pH8)."}, "[3]": {"biological_target": "T2, 7β-HSDH from Collinsella aerofaciens, wild type (WT), SEQ ID NO:2 (Collinsella aerofaciens, UniProt A4ECA9)", "T2 sequence (A4ECA9 1-263)": "B2 chain", "assay": "Kinetic measurements of 7β-HSDH variants (microtiter plate photometer, cell lysate)", "settings": "100 μM NADPH, varied DHCA, Michaelis-Menten model with substrate inhibition"}, "[4]": {"biological_target": "T3, Collinsella aerofaciens 7β-HSDH mutant G39A (parent SEQ ID NO:2) (Collinsella aerofaciens, UniProt A4ECA9, G39A)", "T3 sequence (A4ECA9 1-263 G39A)": "B2 chain with G39A", "assay": "Kinetic measurements of 7β-HSDH variants (microtiter plate photometer, cell lysate)", "settings": "100 μM NADPH, varied DHCA, Michaelis-Menten model with substrate inhibition", "method": "(§7) For each of the mutants and for the wild-type enzyme, kinetic measurements were carried out in the microtiter plate photometer, recording the conversion rates of the enzymes both with constant substrate concentrations with variation of cofactor concentrations and vice versa. To determine the specific enzyme activity, the enzyme concentrations in the cell lysate were determined by densitometry.\n(§8) In these measurement series, the reaction rate was determined by linear regression over the first 4 measurements (0 s-18 s).\n(§9) The data obtained were evaluated with IGOR Pro. […] For this reason, the classical Michaelis-Menten model was used for evaluating the measurement series at constant substrate concentration and variation of cosubstrate concentration, and the Michaelis-Menten model with substrate inhibition was used for the measurement series with constant cosubstrate concentration and variation of substrate concentration.\n(§10) vmax, Km and Ki were determined by nonlinear regression.\n(§11) [formula] • v specific enzyme activity, U mg^−1=μmol min^−1 mg^−1 • vmax maximum specific enzyme activity, U mg^−1=μmol min^−1 mg^−1 • cS substrate or cofactor concentration, mol L^−1 • Km semisaturation concentration, mol L^−1 • Ki inhibition constant, mol L^−1"}, "[5]": {"biological_target": "T4, Collinsella aerofaciens 7β-HSDH mutant G39S (parent SEQ ID NO:2) (Collinsella aerofaciens, UniProt A4ECA9, G39S)", "T4 sequence (A4ECA9 1-263 G39S)": "B2 chain with G39S", "assay": "Kinetic measurements of 7β-HSDH variants (microtiter plate photometer, cell lysate)", "settings": "100 μM NADPH, varied DHCA, Michaelis-Menten model with substrate inhibition", "method": "as §7, §8, §9, §10, §11"}, "[6]": {"substrate": "NC(=O)c1ccc[n+]([C@@H]2O[C@H](COP(=O)([O-])OP(=O)(O)OC[C@H]3O[C@@H](n4cnc5c(N)ncnc54)[C@H](O)[C@@H]3O)[C@@H](O)[C@H]2O)c1", "assay": "Kinetic constants of FDH (characterization of the mutant D221G)", "assay_type": "biochemical, Mycobacterium vaccae N10", "settings": "37.0 °C", "text": "(§1) The following vector constructs were used • pET22b(+) 7β-HSDH: a pET22b(+) vector into which the 7β-HSDH from Collinsella aerofaciens ATCC 25986 had been cloned via the Nde I and Hind III cleavage sites in the usual way. • pET22b(+) 3α-HSDH: a pET22b(+) vector into which the 3α-HSDH from Comamonas testosteroni had been cloned via the Nde I and EcoR I cleavage sites in the usual way (Oppermann et al., J Biochem, 1996, 241(3): 744-749). • pET21a(+) FDH D221G (cf. FIG. 4a): a pET21a(+) vector into which the formate dehydrogenase from Mycobacterium vaccae N10 had been cloned via the Nde I and EcoR I cleavage sites. With site-directed mutagenesis, the aspartate residue (D) at position 221 (without taking into account methionine in position 1) or position 222 (counting from methionine in position 1; cf. SEQ ID NO: 15, 19, 35) of formate dehydrogenase was replaced with a glycine residue (cf. production example 4, below). Formate dehydrogenase carries, at position 1202 of the nucleotide sequence, a single base deletion, which leads to exchange of the last amino acid valine for an alanine. Simultaneously, this base deletion leads to switching-off of the stop codon and to activation of the His·Tag that was originally outside of the reading frame (cf. SEQ ID NO: 34 and 35). • pET21a(+) 7β-HSDH: a pET21a(+) vector, into which the 7β-HSDH from Collinsella aerofaciens ATCC 25986 had been cloned via the Nde I and Xho I cleavage sites in the usual way • pET21a(+) FDH D221G 7β-HSDH (cf. FIG. 4b) • pET21a(+) FDH 7β-HSDH(G39A) 3α-HSDH (cf. FIG. 8) • pCOLA(mod) 3α-HSDH (cf. FIG. 5) Microorganisms\n(§2) The production of an FDH mutant, which can regenerate not only NADH, but also NADHP, will be explained in more detail with the mutant D221G.\n(§3) This can lead to repulsion of the phosphate group in the NADP^+, which is also negatively charged. The aspartate is therefore replaced with the small uncharged amino acid residue glycine (G).\n(§4) First an LB preculture was inoculated from frozen stored material or with a colony from an agar plate and the preculture was incubated overnight. Incubation was carried out at 37° C. and 250 rpm. The OD of the preculture was determined and the culture was inoculated to an OD of 0.1. On reaching an OD of 0.5-1 (after about 2.5 h), it was induced with IPTG (final concentration 1 mM). The cells were harvested three hours after induction.\n(§5) The cells were disrupted mechanically with glass beads. For this, 0.5 mL of glass beads were added to 0.5 mL of cell sample in a 1.5-mL reaction vessel and the reaction vessel was shaken for 3 min at maximum frequency (30 s^−1) in a Retsch vibratory mill. After cell maceration, the glass beads were centrifuged off (2 min, 13000 rpm). Before and after maceration, the culture was put on ice, to minimize protein denaturation through heating of the sample in the vibratory mill. This maceration protocol is optimized for the use of samples frozen at −20° C.\n(§6) Summary of kinetic constants of FDH at pH 6, 7 and 8."}, "[7]": {"substrate": "NC(=O)c1ccc[n+]([C@@H]2O[C@H](COP(=O)([O-])OP(=O)(O)OC[C@H]3O[C@@H](n4cnc5c(N)ncnc54)[C@H](OP(=O)(O)O)[C@@H]3O)[C@@H](O)[C@H]2O)c1", "assay": "Kinetic constants of FDH (characterization of the mutant D221G)", "assay_type": "biochemical, Mycobacterium vaccae N10", "settings": "37.0 °C", "text": "as §1, §2, §3, §4, §5, §6"}, "[8]": {"substrate": "O=CO", "assay": "Kinetic constants of FDH (characterization of the mutant D221G)", "assay_type": "biochemical, Mycobacterium vaccae N10", "settings": "37.0 °C", "text": "as §1, §2, §3, §4, §5, §6"}, "[9]": {"assay": "Preparative biotransformation of 7-keto-LCA by 7β-HSDH with ADH regeneration, HPLC", "assay_type": "biochemical, Collinsella aerofaciens DSM 3979", "settings": "isolated enzyme with ADH and 2-propanol for NADPH regeneration, 24° C., 24 hours"}, "[10]": {"assay_type": "biochemical, Collinsella aerofaciens", "settings": "100 μM NADPH"}, "[11]": {"assay": "Photometric activity of 7β-HSDH variants with NADPH or NADH (production example 7)", "assay_type": "biochemical, Collinsella aerofaciens"}, "[12]": {"settings": "other: pH 6, substrate sodium formate, pH 6.0"}, "[13]": {"settings": "other: pH 7, substrate sodium formate, pH 7.0"}, "[14]": {"settings": "other: pH 8, substrate sodium formate, pH 8.0"}}, "note": "Numbering of substitutions follows the chain as printed. Numbers in names are those of the source.", "data": [{"molecule": "NC(=O)C1=CN([C@@H]2O[C@H](COP(=O)(O)OP(=O)(O)OC[C@H]3O[C@@H](n4cnc5c(N)ncnc54)[C@H](O)[C@@H]3O)[C@@H](O)[C@H]2O)C=CC1", "note": "[NADH]", "values": [{"measurement": "kcat", "setting": "[1]", "value": "Traces"}, {"measurement": "kcat", "setting": "[2]", "value": "Traces"}]}, {"molecule": "NC(=O)c1ccc[n+]([C@@H]2O[C@H](COP(=O)([O-])OP(=O)(O)OC[C@H]3O[C@@H](n4cnc5c(N)ncnc54)[C@H](O)[C@@H]3O)[C@@H](O)[C@H]2O)c1", "note": "[NAD^+]", "values": [{"measurement": "kcat", "setting": "[1]", "value": "Traces"}, {"measurement": "kcat", "setting": "[2]", "value": "Traces"}]}, {"molecule": "C[C@H](CCC(=O)O)[C@H]1CC[C@H]2[C@@H]3C(=O)C[C@@H]4CC(=O)CC[C@]4(C)[C@H]3CC(=O)[C@]12C", "note": "[DHCA, Dehydrocholic acid]", "values": [{"measurement": "activity of 7β-HSDH against the test substance", "setting": "7β-HSDH", "value": 119, "unit": "U/ml"}, {"measurement": "Vmax", "setting": "[1]", "value": 28.33, "unit": "U/mg protein"}, {"measurement": "kcat", "setting": "[1]", "value": "875.35 1 μmol/(μmol × min)"}, {"measurement": "Vmax", "setting": "[3]", "value": "14.6 ± 1.0", "unit": "U/mg"}, {"measurement": "Vmax", "setting": "[3]; listed as DCS", "value": "14.6 ± 1.0", "unit": "U/mg"}, {"measurement": "Vmax", "setting": "[3]; listed as dehydrocholic acid", "value": "14.6±1.0", "unit": "U/mg"}, {"measurement": "Vmax", "setting": "[4]; listed as DCS", "value": "21.0 ± 1.1", "unit": "U/mg"}, {"measurement": "Vmax", "setting": "[4]; listed as dehydrocholic acid", "value": "21.0±1.1", "unit": "U/mg"}, {"measurement": "Vmax", "setting": "[5]; listed as DCS", "value": "20.7 ± 1.0", "unit": "U/mg"}, {"measurement": "Vmax", "setting": "[5]; listed as dehydrocholic acid", "value": "20.1±1.0", "unit": "U/mg"}]}, {"molecule": "B1", "values": [{"measurement": "Km", "setting": "[6]; [12]", "value": 830, "unit": "µM"}, {"measurement": "Km", "setting": "[6]; [13]", "value": 610, "unit": "µM"}, {"measurement": "Km", "setting": "[6]; [14]", "value": 520, "unit": "µM"}, {"measurement": "Km", "setting": "[7]; [12]", "value": 300, "unit": "µM"}, {"measurement": "Km", "setting": "[7]; [13]", "value": 510, "unit": "µM"}, {"measurement": "Km", "setting": "[7]; [14]", "value": 1010, "unit": "µM"}, {"measurement": "Km", "setting": "[8]; other: pH 6, cofactor NAD^+, pH 6.0", "value": 46860, "unit": "µM"}, {"measurement": "Km", "setting": "[8]; other: pH 7, cofactor NAD^+, pH 7.0", "value": 45560, "unit": "µM"}, {"measurement": "Km", "setting": "[8]; other: pH 8, cofactor NAD^+, pH 8.0", "value": 59260, "unit": "µM"}]}, {"molecule": "B2", "values": [{"measurement": "conversion of 7-keto-LCA to UDCA", "setting": "[9]", "value": 90, "unit": "%"}, {"measurement": "maximum attainable enzyme activities (specific enzyme activities at the maxima of the kinetic curves)", "setting": "[10]", "value": "~13", "unit": "U/mg"}, {"measurement": "enzyme activity at substrate concentration of 10 mM dehydrocholic acid", "setting": "[10]; 10 mM dehydrocholic acid", "value": "~6.7", "unit": "U/mg"}, {"measurement": "Specific activity NADH", "setting": "[11]; cofactor NADH", "value": 0, "unit": "U/mg"}, {"measurement": "Volumetric activity NADH", "setting": "[11]; cofactor NADH", "value": 0, "unit": "U/ml"}, {"measurement": "Specific activity NADPH", "setting": "[11]; cofactor NADPH", "value": 5.6, "unit": "U/mg"}, {"measurement": "Volumetric activity NADPH", "setting": "[11]; cofactor NADPH", "value": 134, "unit": "U/ml"}, {"measurement": "residual activity", "setting": "23° C., 1500 min", "value": 20, "unit": "%"}, {"measurement": "activity at 30° C. lower than at 23° C.", "setting": "after 400 min", "value": "about 30%"}, {"measurement": "activity loss during storage", "setting": "−20° C., potassium phosphate buffer 50 mM pH 8, some months, repeated freezing and thawing", "value": "No significant activity loss"}]}]}
